Data as given in the supplement of paper PMC9112550, “Optimization of the antimicrobial peptide Bac7 by deep mutational scanning” (BMC Biology, 2022).

Each sequence was assayed on Escherichia coli TOP10 (assay: shrunken log2 fold change of peptide-encoding DNA abundance (4.5 h post-induction vs induction); higher = less antimicrobial activity (less host growth inhibition)). Conditions: time post-induction: 4.5 h; library: site-saturation at positions 5, 18, 19, 20.
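Note: peptides expressed intracellularly from a pBAD plasmid library in pooled LB shake-flask culture, induced with 0.3% L-arabinose, DNA abundance read by NGS, three biological replicates, DESeq2 with apeglm shrinkage.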

RRIRYRPPRLPRPRPRPSCGPRP and RRIRYRPPRLPRPRPRPSCYPRP are within 0.2 log units of each other in “shrunken log2 fold change” value: -0.184 for the first, -0.0789 for the second.

Going from RRIRYRPPRLPRPRPRPSDCPRP to RRIRYRPPRLPRPRPRPSHCPRP, the “shrunken log2 fold change” value falls from -0.0875 to -0.549.

Going from RRIRYRPPRLPRPRPRPSHEPRP to RRIRYRPPRLPRPRPRPSHKPRP, the “shrunken log2 fold change” value falls from -0.0704 to -1.57.

Going from RRIRYRPPRLPRPRPRPSHMPRP to RRIRYRPPRLPRPRPRPSIPPRP, the “shrunken log2 fold change” value falls from -0.0573 to -1.32.

RRIRYRPPRLPRPRPRPSKTPRP and RRIRYRPPRLPRPRPRPSLAPRP are within 0.2 log units of each other in “shrunken log2 fold change” value: -0.0513 for the first, 0.0395 for the second.

RRIRYRPPRLPRPRPRPSLYPRP and RRIRYRPPRLPRPRPRPSMNPRP are within 0.2 log units of each other in “shrunken log2 fold change” value: -1 for the first, -0.863 for the second.

RRIRYRPPRLPRPRPRPSNGPRP and RRIRYRPPRLPRPRPRPSQPPRP are within 0.2 log units of each other in “shrunken log2 fold change” value: 0.015 for the first, -0.0421 for the second.

Going from RRIRYRPPRLPRPRPRPSQVPRP to RRIRYRPPRLPRPRPRPSQWPRP, the “shrunken log2 fold change” value rises from -0.518 to -0.162.

RRIRYRPPRLPRPRPRPSRAPRP and RRIRYRPPRLPRPRPRPSSLPRP are within 0.2 log units of each other in “shrunken log2 fold change” value: -0.113 for the first, -0.0385 for the second.

Compared with RRIRYRPPRLPRPRPRPSTYPRP, RRIRYRPPRLPRPRPRPSVDPRP is lower in “shrunken log2 fold change” value: -0.332 for the first, -0.61 for the second.

First: RRIRYRPPRLPRPRPRPSVHPRP
Second: RRIRYRPPRLPRPRPRPTAMPRP
The “shrunken log2 fold change” value of the first is lower: -0.284 for the first, 0.133 for the second.

RRIRYRPPRLPRPRPRPTAVPRP and RRIRYRPPRLPRPRPRPTECPRP are within 0.2 log units of each other in “shrunken log2 fold change” value: -0.169 for the first, -0.0134 for the second.

Going from RRIRYRPPRLPRPRPRPTFLPRP to RRIRYRPPRLPRPRPRPTFVPRP, the “shrunken log2 fold change” value rises from -0.495 to -0.0102.

Going from RRIRYRPPRLPRPRPRPTGQPRP to RRIRYRPPRLPRPRPRPTHQPRP, the “shrunken log2 fold change” value falls from 0.0557 to -0.161.

Going from RRIRYRPPRLPRPRPRPTKHPRP to RRIRYRPPRLPRPRPRPTMEPRP, the “shrunken log2 fold change” value rises from -0.896 to 0.0667.

First: RRIRYRPPRLPRPRPRPTMMPRP
Second: RRIRYRPPRLPRPRPRPTNQPRP
The “shrunken log2 fold change” value of the first is lower: -1.19 for the first, -0.575 for the second.

Going from RRIRYRPPRLPRPRPRPTNYPRP to RRIRYRPPRLPRPRPRPTPMPRP, the “shrunken log2 fold change” value falls from 1.18 to 0.843.

Going from RRIRYRPPRLPRPRPRPTQHPRP to RRIRYRPPRLPRPRPRPTRCPRP, the “shrunken log2 fold change” value rises from -0.309 to 0.175.

Going from RRIRYRPPRLPRPRPRPTSMPRP to RRIRYRPPRLPRPRPRPTSSPRP, the “shrunken log2 fold change” value rises from -1 to -0.0743.

Going from RRIRYRPPRLPRPRPRPTSVPRP to RRIRYRPPRLPRPRPRPTTRPRP, the “shrunken log2 fold change” value rises from -0.395 to -0.193.

Compared with RRIRYRPPRLPRPRPRPTWAPRP, RRIRYRPPRLPRPRPRPTWFPRP is lower in “shrunken log2 fold change” value: -0.0132 for the first, -0.351 for the second.

Compared with RRIRYRPPRLPRPRPRPTWNPRP, RRIRYRPPRLPRPRPRPTYAPRP is higher in “shrunken log2 fold change” value: -0.424 for the first, 3.45 for the second.

Compared with RRIRYRPPRLPRPRPRPVAPPRP, RRIRYRPPRLPRPRPRPVAYPRP is lower in “shrunken log2 fold change” value: -0.0629 for the first, -0.926 for the second.

First: RRIRYRPPRLPRPRPRPVCYPRP
Second: RRIRYRPPRLPRPRPRPVGLPRP
The “shrunken log2 fold change” value of the first is lower: -0.209 for the first, 0.158 for the second.

RRIRYRPPRLPRPRPRPVHIPRP and RRIRYRPPRLPRPRPRPVHLPRP are within 0.2 log units of each other in “shrunken log2 fold change” value: -0.526 for the first, -0.328 for the second.

First: RRIRYRPPRLPRPRPRPVIDPRP
Second: RRIRYRPPRLPRPRPRPVKFPRP
The “shrunken log2 fold change” value of the first is lower: -0.942 for the first, -0.133 for the second.

Going from RRIRYRPPRLPRPRPRPVKHPRP to RRIRYRPPRLPRPRPRPVKSPRP, the “shrunken log2 fold change” value falls from -0.122 to -0.84.

First: RRIRYRPPRLPRPRPRPVMFPRP
Second: RRIRYRPPRLPRPRPRPVMNPRP
The “shrunken log2 fold change” value of the first is lower: -0.899 for the first, -0.115 for the second.

Going from RRIRYRPPRLPRPRPRPVMRPRP to RRIRYRPPRLPRPRPRPVPFPRP, the “shrunken log2 fold change” value falls from 0.0461 to -0.348.

RRIRYRPPRLPRPRPRPVPGPRP and RRIRYRPPRLPRPRPRPVPNPRP are within 0.2 log units of each other in “shrunken log2 fold change” value: -0.151 for the first, -0.0518 for the second.

RRIRYRPPRLPRPRPRPVRCPRP and RRIRYRPPRLPRPRPRPVRQPRP are within 0.2 log units of each other in “shrunken log2 fold change” value: 0.0877 for the first, 0.132 for the second.

First: RRIRYRPPRLPRPRPRPVTSPRP
Second: RRIRYRPPRLPRPRPRPVYAPRP
The “shrunken log2 fold change” value of the first is higher: -0.168 for the first, -0.683 for the second.

First: RRIRYRPPRLPRPRPRPVYNPRP
Second: RRIRYRPPRLPRPRPRPWAAPRP
The “shrunken log2 fold change” value of the first is lower: -0.394 for the first, -0.0914 for the second.

Going from RRIRYRPPRLPRPRPRPWCNPRP to RRIRYRPPRLPRPRPRPWCSPRP, the “shrunken log2 fold change” value falls from -0.123 to -0.504.

RRIRYRPPRLPRPRPRPWCYPRP and RRIRYRPPRLPRPRPRPWFLPRP are within 0.2 log units of each other in “shrunken log2 fold change” value: -1.21 for the first, -1.18 for the second.

RRIRYRPPRLPRPRPRPWGFPRP and RRIRYRPPRLPRPRPRPWGPPRP are within 0.2 log units of each other in “shrunken log2 fold change” value: -0.167 for the first, -0.206 for the second.

RRIRYRPPRLPRPRPRPWHIPRP and RRIRYRPPRLPRPRPRPWHLPRP are within 0.2 log units of each other in “shrunken log2 fold change” value: -0.103 for the first, -0.0873 for the second.

RRIRYRPPRLPRPRPRPWIWPRP and RRIRYRPPRLPRPRPRPWKRPRP are within 0.2 log units of each other in “shrunken log2 fold change” value: -0.000921 for the first, 0.047 for the second.

RRIRYRPPRLPRPRPRPWLMPRP and RRIRYRPPRLPRPRPRPWLQPRP are within 0.2 log units of each other in “shrunken log2 fold change” value: -0.0285 for the first, -0.216 for the second.

Going from RRIRYRPPRLPRPRPRPWLWPRP to RRIRYRPPRLPRPRPRPWMHPRP, the “shrunken log2 fold change” value falls from 0.0662 to -0.519.

RRIRYRPPRLPRPRPRPWMNPRP and RRIRYRPPRLPRPRPRPWMSPRP are within 0.2 log units of each other in “shrunken log2 fold change” value: -0.00197 for the first, -0.0725 for the second.

RRIRYRPPRLPRPRPRPWNKPRP and RRIRYRPPRLPRPRPRPWPHPRP are within 0.2 log units of each other in “shrunken log2 fold change” value: -0.00965 for the first, 0.0143 for the second.

Compared with RRIRYRPPRLPRPRPRPWQTPRP, RRIRYRPPRLPRPRPRPWRIPRP is lower in “shrunken log2 fold change” value: -0.0202 for the first, -0.297 for the second.

RRIRYRPPRLPRPRPRPWSWPRP and RRIRYRPPRLPRPRPRPWVKPRP are within 0.2 log units of each other in “shrunken log2 fold change” value: 0.0225 for the first, 0.0136 for the second.

RRIRYRPPRLPRPRPRPWVWPRP and RRIRYRPPRLPRPRPRPWYFPRP are within 0.2 log units of each other in “shrunken log2 fold change” value: -0.111 for the first, -0.15 for the second.

Compared with RRIRYRPPRLPRPRPRPWYTPRP, RRIRYRPPRLPRPRPRPYCRPRP is higher in “shrunken log2 fold change” value: -1.81 for the first, -0.377 for the second.

RRIRYRPPRLPRPRPRPYDLPRP and RRIRYRPPRLPRPRPRPYDSPRP are within 0.2 log units of each other in “shrunken log2 fold change” value: -0.0181 for the first, -0.0285 for the second.

RRIRYRPPRLPRPRPRPYHWPRP and RRIRYRPPRLPRPRPRPYIWPRP are within 0.2 log units of each other in “shrunken log2 fold change” value: -0.115 for the first, -0.29 for the second.

Compared with RRIRYRPPRLPRPRPRPYKMPRP, RRIRYRPPRLPRPRPRPYMRPRP is lower in “shrunken log2 fold change” value: -0.277 for the first, -1.01 for the second.

RRIRYRPPRLPRPRPRPYQAPRP and RRIRYRPPRLPRPRPRPYSIPRP are within 0.2 log units of each other in “shrunken log2 fold change” value: -0.0933 for the first, -0.264 for the second.

Going from RRIRYRPPRLPRPRPRPYTAPRP to RRIRYRPPRLPRPRPRPYWDPRP, the “shrunken log2 fold change” value falls from 0.00143 to -0.483.

RRIRYRPPRLPRPRPRPYWHPRP and RRIRYRPPRLPRPRPRPYYAPRP are within 0.2 log units of each other in “shrunken log2 fold change” value: -0.451 for the first, -0.634 for the second.
